Test results: IntAct's records for PubMed 21262861

Molecular target: sox6_human SOX6 (UniProt P35712)
Sequence (P35712 whole entry): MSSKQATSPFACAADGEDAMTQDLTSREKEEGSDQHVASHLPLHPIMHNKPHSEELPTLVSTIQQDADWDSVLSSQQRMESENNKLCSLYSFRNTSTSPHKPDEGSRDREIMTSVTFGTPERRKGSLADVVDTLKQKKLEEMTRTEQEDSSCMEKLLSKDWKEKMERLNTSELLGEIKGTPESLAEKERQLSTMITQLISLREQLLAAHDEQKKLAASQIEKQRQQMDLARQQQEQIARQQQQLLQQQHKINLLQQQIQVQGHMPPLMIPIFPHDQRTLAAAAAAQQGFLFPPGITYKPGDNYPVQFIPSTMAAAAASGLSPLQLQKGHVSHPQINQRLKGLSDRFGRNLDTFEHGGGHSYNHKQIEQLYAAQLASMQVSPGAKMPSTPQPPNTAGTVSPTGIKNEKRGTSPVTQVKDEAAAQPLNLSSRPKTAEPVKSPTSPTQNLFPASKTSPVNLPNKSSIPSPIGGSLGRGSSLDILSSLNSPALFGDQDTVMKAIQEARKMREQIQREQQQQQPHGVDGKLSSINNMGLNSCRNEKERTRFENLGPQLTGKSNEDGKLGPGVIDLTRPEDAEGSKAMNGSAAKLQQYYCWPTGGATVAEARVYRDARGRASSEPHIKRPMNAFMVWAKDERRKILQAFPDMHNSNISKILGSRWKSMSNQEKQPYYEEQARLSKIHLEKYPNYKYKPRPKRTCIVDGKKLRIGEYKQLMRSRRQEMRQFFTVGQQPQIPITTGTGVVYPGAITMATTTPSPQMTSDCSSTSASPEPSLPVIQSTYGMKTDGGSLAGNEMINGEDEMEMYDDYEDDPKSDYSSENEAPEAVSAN

Chain of Short stature homeobox protein (Homo sapiens), O15266 K116E (O15266 whole entry K116E): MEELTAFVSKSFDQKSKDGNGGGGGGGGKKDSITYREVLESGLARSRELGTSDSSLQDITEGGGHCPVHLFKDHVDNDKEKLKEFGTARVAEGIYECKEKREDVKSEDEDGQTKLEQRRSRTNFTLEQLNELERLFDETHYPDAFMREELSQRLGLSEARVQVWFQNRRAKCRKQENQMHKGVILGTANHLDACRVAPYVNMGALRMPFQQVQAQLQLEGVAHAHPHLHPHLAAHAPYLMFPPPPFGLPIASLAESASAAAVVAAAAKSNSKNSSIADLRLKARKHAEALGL
Chain of Short stature homeobox protein (Homo sapiens), O15266 A170P (O15266 whole entry A170P): as the sequence (O15266 whole entry K116E) above, with E116K, A170P counted along it
Chain of Short stature homeobox protein (Homo sapiens), O15266 R168Y (O15266 whole entry R168Y): as the sequence (O15266 whole entry K116E) above, with E116K, R168Y counted along it
Chain of Short stature homeobox protein (Homo sapiens), O15266 R195P (O15266 whole entry R195P): as the sequence (O15266 whole entry K116E) above, with E116K, R195P counted along it
Chain of Short stature homeobox protein (Homo sapiens), O15266 A233E (O15266 whole entry A233E): as the sequence (O15266 whole entry K116E) above, with E116K, A233E counted along it
Chain of Short stature homeobox protein (Homo sapiens), O15266 D278A (O15266 whole entry D278A): as the sequence (O15266 whole entry K116E) above, with E116K, D278A counted along it
Chain of Short stature homeobox protein (Homo sapiens), O15266 L132V (O15266 whole entry L132V): as the sequence (O15266 whole entry K116E) above, with E116K, L132V counted along it
Chain of Short stature homeobox protein (Homo sapiens), O15266 R173C (O15266 whole entry R173C): as the sequence (O15266 whole entry K116E) above, with E116K, R173C counted along it

| Substance | effect of a mutation on the interaction |
| --- | --- |
| Short stature homeobox protein (Homo sapiens), O15266 R168Y | decreasing interaction |
| Short stature homeobox protein (Homo sapiens), O15266 A233E | decreasing interaction |
| Short stature homeobox protein (Homo sapiens), O15266 R173C | decreasing interaction |
| Short stature homeobox protein (Homo sapiens), O15266 K116E | decreasing interaction |
| Short stature homeobox protein (Homo sapiens), O15266 A170P | disrupting interaction |
| Short stature homeobox protein (Homo sapiens), O15266 L132V | disrupting interaction |
| Short stature homeobox protein (Homo sapiens), O15266 R195P | decreasing interaction |
| Short stature homeobox protein (Homo sapiens), O15266 D278A | decreasing interaction |
